Measurements reported in patent US20240108738A1 (Bicycle, published 2024).
Numbered stars: 1 amine (or outer) side, 2 acyl side, 3 side chain; on linkers, the order of the positions; unused ones are H or OH. Bridge positions count the residues as written; N and C are the ends. Square brackets hold non-standard residues; d marks the D form. Ends that are not written are not given here. * marks the point of attachment. TATA = O=C(CC[*:1])N1CN(C(=O)CC[*:2])CN(C(=O)CC[*:3])C1; 1Nal = N[C@@H](Cc1cccc2ccccc12)C(=O)O; 2Nal = N[C@@H](Cc1ccc2ccccc2c1)C(=O)O; Ala(cPent) = N[C@@H](CC1CCCC1)C(=O)O; Nva(3-Et) = CCC(CC)[C@H](N)C(=O)O; aIle = CC[C@@H](C)[C@H](N)C(=O)O; tBuAla = CC(C)(C)C[C@H](N)C(=O)O; Cba = N[C@@H](CC1CCC1)C(=O)O; Nle = CCCC[C@H](N)C(=O)O; Pent4ynoyl = C#CCCC(=O)*; Aib = CC(C)(N)C(=O)O

target: T1, Human NKp46 Fc tag (Acro Biosystems, NC1-H5257) (human, UniProt O76036 22-255); experiment: SPR Method 1 and/or 2
T1 construct: bought; also called Fc-tagged human NKp46
T1 sequence (O76036 22-255 limits assumed): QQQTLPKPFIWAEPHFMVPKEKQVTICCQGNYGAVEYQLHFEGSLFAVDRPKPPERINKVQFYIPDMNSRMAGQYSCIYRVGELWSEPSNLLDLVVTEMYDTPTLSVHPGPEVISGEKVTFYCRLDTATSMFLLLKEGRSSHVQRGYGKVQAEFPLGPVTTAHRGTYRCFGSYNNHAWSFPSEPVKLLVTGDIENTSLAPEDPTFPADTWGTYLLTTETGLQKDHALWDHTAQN
How it was run: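 Fc-tagged human NKp46 captured on anti-human IgG surface (500–1000 RU); compounds run in PBS-P+ with 2% DMSO at 25 °C, 50 μL/min, 60 s association, 400 s dissociation. Double-referenced, DMSO-corrected; KD from steady-state 1:1 fit, kinetic constants from kinetic 1:1 fit where appropriate.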

| Binder | Kd |
| --- | --- |
| ACDLTTHNCQWG[Nva(3-Et)]CA-NH2 (linker 2-9-14 via TATA; N-terminus assumed; SMILES CCC(CC)[C@@H]1NC(=O)CNC(=O)[C@H](Cc2c[nH]c3ccccc23)NC(=O)[C@H](CCC(N)=O)NC(=O)[C@@H]2CSCCC(=O)N3CN(CN(C3)C(=O)CCSC[C@@H](C(=O)N[C@@H](C)C(N)=O)NC1=O)C(=O)CCSC[C@H](NC(=O)[C@H](C)N)C(=O)N[C@@H](CC(=O)O)C(=O)N[C@@H](CC(C)C)C(=O)N[C@@H]([C@@H](C)O)C(=O)N[C@@H]([C@@H](C)O)C(=O)N[C@@H](Cc1c[nH]cn1)C(=O)N[C@@H](CC(N)=O)C(=O)N2, scaffold TATA) [BCY19733] | 354 nM |
| ACDLTTHNCQWG[Nle]CA-NH2 (linker 2-9-14 via TATA; N-terminus assumed; SMILES CCCC[C@@H]1NC(=O)CNC(=O)[C@H](Cc2c[nH]c3ccccc23)NC(=O)[C@H](CCC(N)=O)NC(=O)[C@@H]2CSCCC(=O)N3CN(CN(C3)C(=O)CCSC[C@@H](C(=O)N[C@@H](C)C(N)=O)NC1=O)C(=O)CCSC[C@H](NC(=O)[C@H](C)N)C(=O)N[C@@H](CC(=O)O)C(=O)N[C@@H](CC(C)C)C(=O)N[C@@H]([C@@H](C)O)C(=O)N[C@@H]([C@@H](C)O)C(=O)N[C@@H](Cc1c[nH]cn1)C(=O)N[C@@H](CC(N)=O)C(=O)N2, scaffold TATA) [BCY19734] | 611 nM |
| Ac-CY[Cba]PDYLC[dA]DEYCK(Pent4ynoyl)-NH2 (linker 1-8-13 via TATA; SMILES C#CCCC(=O)NCCCC[C@H](NC(=O)[C@@H]1CSCCC(=O)N2CN3CN(C2)C(=O)CCSC[C@H](NC(=O)[C@H](CC(C)C)NC(=O)[C@H](Cc2ccc(O)cc2)NC(=O)[C@H](CC(=O)O)NC(=O)[C@@H]2CCCN2C(=O)[C@H](CC2CCC2)NC(=O)[C@H](Cc2ccc(O)cc2)NC(=O)[C@@H](NC(C)=O)CSCCC3=O)C(=O)N[C@H](C)C(=O)N[C@@H](CC(=O)O)C(=O)N[C@@H](CCC(=O)O)C(=O)N[C@@H](Cc2ccc(O)cc2)C(=O)N1)C(N)=O, scaffold TATA) [BCY17224] | 3.5 nM |
| ACNLQLHNCQWGICA-NH2 (linker 2-9-14 via TATA; also: scaffold TATA, TATB or TBMT, scaffold TATA) [BCY15568] | 69 nM |

Next, values leading:

| Kd | Binder |
| --- | --- |
| 703 nM | ACNLQKPCMKYPCA-NH2 (linker 2-8-13 via TATA; also: scaffold TATA, TATB or TBMT, scaffold TATA) [BCY14456] |
| 642 nM | ACDLTTHNCLWGVCA-NH2 (linker 2-9-14 via TATA; also: scaffold TATA, TATB or TBMT, scaffold TATA) [BCY15108] |
| 83 nM | ACK(Pent4ynoyl)LPDYLCGDEYCA-NH2 (linker 2-9-14 via TATA; N-terminus assumed; SMILES C#CCCC(=O)NCCCC[C@@H]1NC(=O)[C@@H](NC(=O)[C@H](C)N)CSCCC(=O)N2CN3CN(C2)C(=O)CCSC[C@@H](C(=O)N[C@@H](C)C(N)=O)NC(=O)[C@H](Cc2ccc(O)cc2)NC(=O)[C@H](CCC(=O)O)NC(=O)[C@H](CC(=O)O)NC(=O)CNC(=O)[C@H](CSCCC3=O)NC(=O)[C@H](CC(C)C)NC(=O)[C@H](Cc2ccc(O)cc2)NC(=O)[C@H](CC(=O)O)NC(=O)[C@@H]2CCCN2C(=O)[C@H](CC(C)C)NC1=O, scaffold TATA) [BCY16834] |
| 460 nM | ACDLTTHNCQWG[aIle]CA-NH2 (linker 2-9-14 via TATA, scaffold TATA) [BCY19735] |
| 274 nM | ACNLQLHNCIWGVCA-NH2 (linker 2-9-14 via TATA; also: scaffold TATA, TATB or TBMT, scaffold TATA) [BCY15109] |

target: T2, Human NKp46 His tag (Acro Biosystems, NC1-H52H4) (human, UniProt O76036 22-255); experiment: FP competition vs BCY15035
T2 construct: bought; also called human NKp46-his tagged protein
T2 sequence (O76036 22-255 limits assumed): as above
Method: The untagged competitor peptides were diluted in assay buffer 25 mM HEPES, 100 mM NaCl, 0.01% P20, pH 7.4. to a top concentration of 5000 nM and diluted 2-fold in 11 steps. The human NKp46-his tagged protein (AcroBiosystems) was diluted to 40 nM final concentration in the assay. […] The total volume of 25 μL was prepared in black walled and flat-bottomed low binding low volume 384 well plates. Measurements were performed using Envision (PerkinElmer) equipped with the excitation filter FITC FP 480, emission filter FITC FP P-pol 535 and 2nd emission filter FITC FP S-pol 535 and set to 30 flashes. The gain was set in a well containing tracer alone without target protein.

| Binder | Ki |
| --- | --- |
| Ac-CYLPDYLCGDEYC-NH2 (linker 1-8-13 via TATA; not fully specified, scaffold TATA) [BCY15634] | 98 nM |
| ACYLPDW[tBuAla]CGDEYCA-NH2 (linker 2-9-14 via TATA; N-terminus assumed; SMILES CC(C)C[C@@H]1NC(=O)[C@H](Cc2ccc(O)cc2)NC(=O)[C@@H](NC(=O)[C@H](C)N)CSCCC(=O)N2CN3CN(C2)C(=O)CCSC[C@@H](C(=O)N[C@@H](C)C(N)=O)NC(=O)[C@H](Cc2ccc(O)cc2)NC(=O)[C@H](CCC(=O)O)NC(=O)[C@H](CC(=O)O)NC(=O)CNC(=O)[C@H](CSCCC3=O)NC(=O)[C@H](CC(C)(C)C)NC(=O)[C@H](Cc2c[nH]c3ccccc23)NC(=O)[C@H](CC(=O)O)NC(=O)[C@@H]2CCCN2C1=O, scaffold TATA) [BCY15648] | 1620 nM |
| ACYLPD[1Nal]LCGDEYCA-NH2 (linker 2-9-14 via TATA; N-terminus assumed; SMILES CC(C)C[C@@H]1NC(=O)[C@H](Cc2cccc3ccccc23)NC(=O)[C@H](CC(=O)O)NC(=O)[C@@H]2CCCN2C(=O)[C@H](CC(C)C)NC(=O)[C@H](Cc2ccc(O)cc2)NC(=O)[C@@H](NC(=O)[C@H](C)N)CSCCC(=O)N2CN3CN(C2)C(=O)CCSC[C@@H](C(=O)N[C@@H](C)C(N)=O)NC(=O)[C@H](Cc2ccc(O)cc2)NC(=O)[C@H](CCC(=O)O)NC(=O)[C@H](CC(=O)O)NC(=O)CNC(=O)[C@H](CSCCC3=O)NC1=O, scaffold TATA) [BCY15643] | 755 nM |
| ACYL[Aib]DYLCGDEYCA-NH2 (linker 2-9-14 via TATA, scaffold TATA) [BCY15642] | 910 nM |
| ACYLPDYLCGDEYCA-NH2 (linker 2-9-14 via TATA; also: scaffold TATA, TATB or TBMT, scaffold TATA) [BCY15100] | 49 nM |
| ACALPDYLCGDEYCA-NH2 (linker 2-9-14 via TATA; also: cyclised with TATA, TATB or TBMT, scaffold TATA) [BCY15653] | 411 nM |
| ACYLPDYLCADEYCA-NH2 (linker 2-9-14 via TATA; also: cyclised with TATA, TATB or TBMT, scaffold TATA) [BCY15659] | 226 nM |

The next lines start with the values.

| Ki | Binder |
| --- | --- |
| 61 nM | Ac-ACYLPDYLCGDEYCA-NH2 (linker 2-9-14 via TATA, scaffold TATA) [BCY15635] |
| 391 nM | ACYLPDW[Cba]CGDEYCA-NH2 (linker 2-9-14 via TATA, scaffold TATA) [BCY15649] |
| 77 nM | [dA]CYLPDYLCGDEYC-NH2 (linker 2-9-14 via TATA; N-terminus assumed; SMILES CC(C)C[C@@H]1NC(=O)[C@H](Cc2ccc(O)cc2)NC(=O)[C@H](CC(=O)O)NC(=O)[C@@H]2CCCN2C(=O)[C@H](CC(C)C)NC(=O)[C@H](Cc2ccc(O)cc2)NC(=O)[C@@H](NC(=O)[C@@H](C)N)CSCCC(=O)N2CN3CN(C2)C(=O)CCSC[C@H](NC1=O)C(=O)NCC(=O)N[C@@H](CC(=O)O)C(=O)N[C@@H](CCC(=O)O)C(=O)N[C@@H](Cc1ccc(O)cc1)C(=O)N[C@H](C(N)=O)CSCCC3=O, scaffold TATA) [BCY16134] |
| 86 nM | CYLPDYLCGDEYC-NH2 (linker 1-8-13 via TATA; also: scaffold TATA, TATB or TBMT, scaffold TATA) [BCY15633] |
| 321 nM | ACY[Ala(cPent)]PDYLCGDEYCA-NH2 (linker 2-9-14 via TATA, scaffold TATA) [BCY16130] |
| 159 nM | ACYLPD[2Nal]LCGDEYCA-NH2 (linker 2-9-14 via TATA; N-terminus assumed; SMILES CC(C)C[C@@H]1NC(=O)[C@H](Cc2ccc3ccccc3c2)NC(=O)[C@H](CC(=O)O)NC(=O)[C@@H]2CCCN2C(=O)[C@H](CC(C)C)NC(=O)[C@H](Cc2ccc(O)cc2)NC(=O)[C@@H](NC(=O)[C@H](C)N)CSCCC(=O)N2CN3CN(C2)C(=O)CCSC[C@@H](C(=O)N[C@@H](C)C(N)=O)NC(=O)[C@H](Cc2ccc(O)cc2)NC(=O)[C@H](CCC(=O)O)NC(=O)[C@H](CC(=O)O)NC(=O)CNC(=O)[C@H](CSCCC3=O)NC1=O, scaffold TATA) [BCY15644] |
| 324 nM | ACYLADYLCGDEYCA-NH2 (linker 2-9-14 via TATA; also: cyclised with TATA, TATB or TBMT, scaffold TATA) [BCY15655] |
| 672 nM | ACYLPDYLCGDEACA-NH2 (linker 2-9-14 via TATA; also: cyclised with TATA, TATB or TBMT, scaffold TATA) [BCY15662] |
| 1780 nM | ACYLPDYLCGDAYCA-NH2 (linker 2-9-14 via TATA; also: cyclised with TATA, TATB or TBMT, scaffold TATA) [BCY15661] |
